Assay results taken from article PMC8695382 (Nature, 2021).

T1: Dia2 (Saccharomyces cerevisiae, UniProt Q08496 1-732)
T1 construct: Dia2, F-box protein, S. cerevisiae; model built for F-box (211–247), LRRs (248–716) and C-terminal tail (717–732); N-terminal TPR domain not visible; Subunit of m1 as it stands in the cryo-EM samples; also called Dia2^LRR (its leucine-rich repeat domain); source: purified as part of SCF^Dia2
T1 sequence: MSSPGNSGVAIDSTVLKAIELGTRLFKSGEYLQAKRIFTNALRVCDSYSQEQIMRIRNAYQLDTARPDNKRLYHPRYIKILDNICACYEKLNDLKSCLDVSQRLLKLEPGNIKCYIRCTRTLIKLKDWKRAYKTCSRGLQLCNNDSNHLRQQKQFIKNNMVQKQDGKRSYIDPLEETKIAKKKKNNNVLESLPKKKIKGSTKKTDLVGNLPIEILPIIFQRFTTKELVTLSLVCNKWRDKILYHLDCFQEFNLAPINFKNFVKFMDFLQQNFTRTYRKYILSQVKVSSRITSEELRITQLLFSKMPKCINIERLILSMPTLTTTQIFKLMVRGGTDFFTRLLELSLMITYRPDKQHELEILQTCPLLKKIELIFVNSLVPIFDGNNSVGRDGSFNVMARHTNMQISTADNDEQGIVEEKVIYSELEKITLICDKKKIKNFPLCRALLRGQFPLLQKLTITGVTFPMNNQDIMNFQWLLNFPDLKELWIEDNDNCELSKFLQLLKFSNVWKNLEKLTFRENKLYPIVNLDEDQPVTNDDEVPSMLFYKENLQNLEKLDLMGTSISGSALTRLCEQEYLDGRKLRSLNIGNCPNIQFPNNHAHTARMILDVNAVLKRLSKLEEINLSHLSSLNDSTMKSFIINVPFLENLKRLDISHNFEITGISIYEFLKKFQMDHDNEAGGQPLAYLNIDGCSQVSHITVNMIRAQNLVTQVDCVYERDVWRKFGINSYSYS

B1: Mcm7 (natural protein, Saccharomyces cerevisiae)
chain: MSAALPSIQLPVDYNNLFNEITDFLVTFKQDTLSSDATRNENEDENLDAENIEQHLLEKGPKYMAMLQKVANRELNSVIIDLDDILQYQNEKFLQGTQADDLVSAIQQNANHFTELFCRAIDNNMPLPTKEIDYKDDVLDVILNQRRLRNERMLSDRTNEIRSENLMDTTMDPPSSMNDALREVVEDETELFPPNLTRRYFLYFKPLSQNCARRYRKKAISSKPLSVRQIKGDFLGQLITVRGIITRVSDVKPAVEVIAYTCDQCGYEVFQEVNSRTFTPLSECTSEECSQNQTKGQLFMSTRASKFSAFQECKIQELSQQVPVGHIPRSLNIHVNGTLVRSLSPGDIVDVTGIFLPAPYTGFKALKAGLLTETYLEAQFVRQHKKKFASFSLTSDVEERVMELITSGDVYNRLAKSIAPEIYGNLDVKKALLLLLVGGVDKRVGDGMKIRGDINVCLMGDPGVAKSQLLKAICKISPRGVYTTGKGSSGVGLTAAVMKDPVTDEMILEGGALVLADNGICCIDEFDKMDESDRTAIHEVMEQQTISISKAGINTTLNARTSILAAANPLYGRYNPRLSPLDNINLPAALLSRFDILFLMLDIPSRDDDEKLAEHVTYVHMHNKQPDLDFTPVEPSKMREYIAYAKTKRPVMSEAVNDYVVQAYIRLRQDSKREMDSKFSFGQATPRTLLGIIRLSQALAKLRLADMVDIDDVEEALRLVRVSKESLYQETNKSKEDESPTTKIFTIIKKMLQETGKNTLSYENIVKTVRLRGFTMLQLSNCIQEYSYLNVWHLINEGNTLKFVDDGTMDTDQEDSLVSTPKLAPQTTASANVSAQDSDIDLQDA
notes: Mcm7, S. cerevisiae; Subunit of m2; source: purified as part of CMG
B2: Mcm5 (natural protein, Saccharomyces cerevisiae)
chain: MSFDRPEIYSAPVLQGESPNDDDNTEIIKSFKNFILEFRLDSQFIYRDQLRNNILVKNYSLTVNMEHLIGYNEDIYKKLSDEPSDIIPLFETAITQVAKRISILSRAQSANNNDKDPENTSMDTDSLLLNSLPTFQLILNSNANQIPLRDLDSEHVSKIVRLSGIIISTSVLSSRATYLSIMCRNCRHTTSITINNFNSITGNTVSLPRSCLSTIESESSMANESNIGDESTKKNCGPDPYIIIHESSKFIDQQFLKLQEIPELVPVGEMPRNLTMTCDRYLTNKVIPGTRVTIVGIYSIYNSKNGAGSGRSGGGNGGSGVAIRTPYIKILGIQSDVETSSIWNSVTMFTEEEEEEFLQLSRNPKLYEILTNSIAPSIFGNEDIKKAIVCLLMGGSKKILPDGMRLRGDINVLLLGDPGTAKSQLLKFVEKVSPIAVYTSGKGSSAAGLTASVQRDPMTREFYLEGGAMVLADGGVVCIDEFDKMRDEDRVAIHEAMEQQTISIAKAGITTVLNSRTSVLAAANPIYGRYDDLKSPGDNIDFQTTILSRFDMIFIVKDDHNEERDISIANHVINIHTGNANAMQNQQEENGSEISIEKMKRYITYCRLKCAPRLSPQAAEKLSSNFVTIRKQLLINELESTERSSIPITIRQLEAIIRITESLAKLELSPIAQERHVDEAIRLFQASTMDAASQDPIGGLNQASGTSLSEIRRFEQELKRRLPIGWSTSYQTLRREFVDTHRFSQLALDKALYALEKHETIQLRHQGQNIYRSGV
notes: Mcm5, S. cerevisiae; Subunit of m2; source: purified as part of CMG
B3: Mcm2 (natural protein, Saccharomyces cerevisiae)
chain: MSDNRRRRREEDDSDSENELPPSSPQQHFRGGMNPVSSPIGSPDMINPEGDDNEVDDVPDIDEVEEQMNEVDLMDDNMYEDYAADHNRDRYDPDQVDDREQQELSLSERRRIDAQLNERDRLLRNVAYIDDEDEEQEGAAQLDEMGLPVQRRRRRRQYEDLENSDDDLLSDMDIDPLREELTLESLSNVKANSYSEWITQPNVSRTIARELKSFLLEYTDETGRSVYGARIRTLGEMNSESLEVNYRHLAESKAILALFLAKCPEEMLKIFDLVAMEATELHYPDYARIHSEIHVRISDFPTIYSLRELRESNLSSLVRVTGVVTRRTGVFPQLKYVKFNCLKCGSILGPFFQDSNEEIRISFCTNCKSKGPFRVNGEKTVYRNYQRVTLQEAPGTVPPGRLPRHREVILLADLVDVSKPGEEVEVTGIYKNNYDGNLNAKNGFPVFATIIEANSIKRREGNTANEGEEGLDVFSWTEEEEREFRKISRDRGIIDKIISSMAPSIYGHRDIKTAVACSLFGGVPKNVNGKHSIRGDINVLLLGDPGTAKSQILKYVEKTAHRAVFATGQGASAVGLTASVRKDPITKEWTLEGGALVLADKGVCLIDEFDKMNDQDRTSIHEAMEQQSISISKAGIVTTLQARCSIIAAANPNGGRYNSTLPLAQNVSLTEPILSRFDILCVVRDLVDEEADERLATFVVDSHVRSHPENDEDREGEELKNNGESAIEQGEDEINEQLNARQRRLQRQRKKEEEISPIPQELLMKYIHYARTKIYPKLHQMDMDKVSRVYADLRRESISTGSFPITVRHLESILRIAESFAKMRLSEFVSSYDLDRAIKVVVDSFVDAQKVSVRRQLRRSFAIYTLGH
notes: Mcm2, S. cerevisiae; Subunit of m2; source: purified as part of CMG
B4: Dpb2 (natural protein, Saccharomyces cerevisiae)
chain: MFGSGNVLPVKIQPPLLRPLAYRVLSRKYGLSIKSDGLSALAEFVGTNIGANWRQGPATIKFLEQFAAVWKQQERGLFIDQSGVKEVIQEMKEREKVEWSHEHPIQHEENILGRTDDDENNSDDEMPIAADSSLQNVSLSSPMRQPTERDEYKQPFKPESSKALDWRDYFKVINASQQQRFSYNPHKMQFIFVPNKKQNGLGGIAGFLPDIEDKVQMFLTRYYLTNDRVMRNENFQNSDMFNPLSSMVSLQNELSNTNRQQQSSSMSITPIKNLLGRDAQNFLLLGLLNKNFKGNWSLEDPSGSVEIDISQTIPTQGHYYVPGCMVLVEGIYYSVGNKFHVTSMTLPPGERREITLETIGNLDLLGIHGISNNNFIARLDKDLKIRLHLLEKELTDHKFVILGANLFLDDLKIMTALSKILQKLNDDPPTLLIWQGSFTSVPVFASMSSRNISSSTQFKNNFDALATLLSRFDNLTENTTMIFIPGPNDLWGSMVSLGASGTLPQDPIPSAFTKKINKVCKNVVWSSNPTRIAYLSQEIVIFRDDLSGRFKRHRLEFPFNESEDVYTENDNMMSKDTDIVPIDELVKEPDQLPQKVQETRKLVKTILDQGHLSPFLDSLRPISWDLDHTLTLCPIPSTMVLCDTTSAQFDLTYNGCKVINPGSFIHNRRARYMEYVPSSKKTIQEEIYI
notes: Dpb2, subunit of DNA polymerase ε, S. cerevisiae; Subunit of m15; source: purified as part of Pol-ε
B5: Csm3 (natural protein, Saccharomyces cerevisiae)
chain: MDQDFDSLLLGFNDSDSVQKDPTVPNGLDGSVVDPTIADPTAITARKRRPQVKLTAEKLLSDKGLPYVLKNAHKRIRISSKKNSYDNLSNIIQFYQLWAHELFPKAKFKDFMKICQTVGKTDPVLREYRVSLFRDEMGMSFDVGTRETGQDLERQSPMVEEHVTSAEERPIVADSFAQDKRNVNNVDYDNDEDDDIYHLSYRNRRGRVLDERGNNETVLNNVVPPKEDLDALLKTFRVQGPVGLEENEKKLLLGWLDAHRKMEKGSMTEEDVQLIQSLEEWEMNDIEGQHTHYDLLPGGDEFGVDQDELDAMKEMGF
notes: Csm3, S. cerevisiae; Subunit of m12; source: purified as part of Tof1–Csm3

How the values were obtained:
Assay in all cases: cryo-EM structure; yeast replisome–SCF^Dia2 complexes after gradient fixation; particles translocated onto dsDNA (conformations I and II)
Conditions in all cases: both partners purified
[1] = molecular target: T2, Mcm3 (Saccharomyces cerevisiae, UniProt P24279 1-971)
T2 construct: Mcm3, S. cerevisiae; Subunit of m2; source: purified as part of CMG
T2 sequence (P24279 whole entry): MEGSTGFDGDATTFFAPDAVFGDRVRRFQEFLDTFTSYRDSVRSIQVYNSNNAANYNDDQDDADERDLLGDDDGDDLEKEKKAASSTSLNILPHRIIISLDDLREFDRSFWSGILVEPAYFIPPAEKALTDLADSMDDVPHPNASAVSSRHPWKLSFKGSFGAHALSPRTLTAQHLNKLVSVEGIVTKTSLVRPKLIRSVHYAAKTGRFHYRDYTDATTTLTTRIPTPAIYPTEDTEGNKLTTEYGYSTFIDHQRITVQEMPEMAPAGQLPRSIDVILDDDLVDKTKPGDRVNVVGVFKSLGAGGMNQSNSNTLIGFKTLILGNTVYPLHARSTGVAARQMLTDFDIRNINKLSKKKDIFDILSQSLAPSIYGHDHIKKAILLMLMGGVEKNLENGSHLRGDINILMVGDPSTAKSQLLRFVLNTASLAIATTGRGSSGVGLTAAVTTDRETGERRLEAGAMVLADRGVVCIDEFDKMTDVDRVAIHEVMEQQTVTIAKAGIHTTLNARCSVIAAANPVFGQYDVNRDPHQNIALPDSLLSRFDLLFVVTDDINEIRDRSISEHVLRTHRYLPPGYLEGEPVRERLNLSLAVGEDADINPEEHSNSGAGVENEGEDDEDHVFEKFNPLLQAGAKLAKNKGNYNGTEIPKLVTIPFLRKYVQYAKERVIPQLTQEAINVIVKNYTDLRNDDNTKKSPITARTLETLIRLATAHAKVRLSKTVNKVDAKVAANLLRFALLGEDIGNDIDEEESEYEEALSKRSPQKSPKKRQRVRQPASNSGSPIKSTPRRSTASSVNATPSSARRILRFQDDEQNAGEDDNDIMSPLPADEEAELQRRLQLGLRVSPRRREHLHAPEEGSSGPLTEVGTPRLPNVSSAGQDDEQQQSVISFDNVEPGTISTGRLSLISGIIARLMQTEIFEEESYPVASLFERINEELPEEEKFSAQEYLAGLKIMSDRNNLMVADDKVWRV

[2] = molecular target: T3, Pol2 (Saccharomyces cerevisiae, UniProt P21951 1-2222)
T3 construct: Pol2, catalytic subunit of DNA polymerase ε, S. cerevisiae; catalytic domain ends at residue 1186, non-catalytic domain begins at residue 1321; Subunit of m15; source: purified as part of Pol-ε
T3 sequence (P21951 whole entry, the tested form may be a part): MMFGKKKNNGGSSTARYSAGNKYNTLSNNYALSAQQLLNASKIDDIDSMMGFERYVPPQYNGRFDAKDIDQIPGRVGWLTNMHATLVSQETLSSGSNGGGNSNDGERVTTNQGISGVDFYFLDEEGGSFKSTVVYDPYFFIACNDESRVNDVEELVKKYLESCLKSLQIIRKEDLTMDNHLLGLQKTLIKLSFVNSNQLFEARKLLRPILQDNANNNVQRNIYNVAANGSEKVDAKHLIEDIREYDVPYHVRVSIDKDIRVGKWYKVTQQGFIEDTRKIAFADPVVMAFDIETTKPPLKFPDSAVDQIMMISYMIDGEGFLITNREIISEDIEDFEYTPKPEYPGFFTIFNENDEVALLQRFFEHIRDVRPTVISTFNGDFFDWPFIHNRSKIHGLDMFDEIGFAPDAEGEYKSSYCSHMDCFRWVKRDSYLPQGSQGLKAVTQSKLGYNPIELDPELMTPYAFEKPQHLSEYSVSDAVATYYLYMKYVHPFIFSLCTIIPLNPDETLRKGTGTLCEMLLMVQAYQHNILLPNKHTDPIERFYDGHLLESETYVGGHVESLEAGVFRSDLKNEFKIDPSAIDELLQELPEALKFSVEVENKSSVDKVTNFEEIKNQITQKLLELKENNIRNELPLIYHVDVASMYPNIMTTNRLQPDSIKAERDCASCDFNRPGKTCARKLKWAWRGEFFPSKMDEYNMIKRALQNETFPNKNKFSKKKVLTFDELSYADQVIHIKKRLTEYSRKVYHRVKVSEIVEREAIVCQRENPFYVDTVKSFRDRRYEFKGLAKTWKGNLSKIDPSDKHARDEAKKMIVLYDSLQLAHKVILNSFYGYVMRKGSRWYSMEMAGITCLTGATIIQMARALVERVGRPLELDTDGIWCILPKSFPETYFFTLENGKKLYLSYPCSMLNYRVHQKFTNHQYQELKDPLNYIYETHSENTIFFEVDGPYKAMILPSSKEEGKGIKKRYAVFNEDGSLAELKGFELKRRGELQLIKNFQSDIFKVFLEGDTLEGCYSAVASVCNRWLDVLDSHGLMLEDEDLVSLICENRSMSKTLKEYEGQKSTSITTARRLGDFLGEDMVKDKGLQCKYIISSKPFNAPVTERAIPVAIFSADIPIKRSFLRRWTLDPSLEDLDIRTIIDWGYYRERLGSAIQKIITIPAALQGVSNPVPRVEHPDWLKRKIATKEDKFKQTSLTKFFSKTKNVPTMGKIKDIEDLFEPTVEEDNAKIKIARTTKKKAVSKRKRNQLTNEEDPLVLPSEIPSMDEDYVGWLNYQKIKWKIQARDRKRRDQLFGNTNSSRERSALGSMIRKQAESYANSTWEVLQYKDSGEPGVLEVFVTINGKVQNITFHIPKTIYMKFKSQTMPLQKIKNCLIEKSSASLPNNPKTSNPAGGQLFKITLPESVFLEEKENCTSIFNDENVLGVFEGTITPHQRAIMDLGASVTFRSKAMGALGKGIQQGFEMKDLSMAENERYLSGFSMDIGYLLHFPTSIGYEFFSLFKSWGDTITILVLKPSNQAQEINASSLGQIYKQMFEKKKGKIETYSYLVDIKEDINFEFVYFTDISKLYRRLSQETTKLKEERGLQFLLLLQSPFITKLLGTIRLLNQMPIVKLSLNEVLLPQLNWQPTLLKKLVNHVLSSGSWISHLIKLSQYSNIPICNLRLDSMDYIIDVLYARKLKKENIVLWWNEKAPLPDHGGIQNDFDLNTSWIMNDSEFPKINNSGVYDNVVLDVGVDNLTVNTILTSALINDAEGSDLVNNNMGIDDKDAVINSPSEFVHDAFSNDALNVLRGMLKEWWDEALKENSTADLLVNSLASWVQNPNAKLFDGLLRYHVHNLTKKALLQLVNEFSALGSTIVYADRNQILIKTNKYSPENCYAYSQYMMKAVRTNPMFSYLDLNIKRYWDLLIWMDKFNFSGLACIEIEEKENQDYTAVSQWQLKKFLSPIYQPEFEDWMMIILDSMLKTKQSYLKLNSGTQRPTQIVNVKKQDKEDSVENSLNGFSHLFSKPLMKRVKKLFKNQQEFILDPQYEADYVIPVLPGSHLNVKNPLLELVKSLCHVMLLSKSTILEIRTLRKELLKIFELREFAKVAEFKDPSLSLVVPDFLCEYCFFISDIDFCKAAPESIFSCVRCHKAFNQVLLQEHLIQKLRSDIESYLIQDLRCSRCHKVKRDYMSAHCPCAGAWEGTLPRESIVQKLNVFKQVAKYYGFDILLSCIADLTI

[3] = molecular target: B2
[4] = molecular target: T1, Dia2

Binder: B1
binding result [1]: binds

Binder: B2
binding result [2]: binds

Binder: B3
binding result [2]: binds

Binder: B4
binding result [3]: binds

Binder: B5
binding result [4]: binds
